Data from US20100260765A1.

What was measured:
[1] = molecular target: soluble KDR Ig4-7 domain (human) (UniProt P35968); test: ELISA, KDR Ig4-7 coat (1:1 diln.), antibody 0.01 ug/mL
[2] = molecular target: soluble KDR Ig4-7 domain (human) (UniProt P35968); test: ELISA, KDR Ig4-7 coat (1:1 diln.), antibody 1 ug/mL
[3] = molecular target: soluble KDR Ig4-7 domain (human) (UniProt P35968); test: ELISA, KDR Ig4-7 coat (1:1 diln.), antibody 0.1 ug/mL
[4] = molecular target: whole KDR-ECD (Cat. # 676490, Calbiochem) (human) (UniProt P35968); test: ELISA, KDR-ECD coat 5 ug/mL, antibody 1 ug/mL
[5] = molecular target: whole KDR-ECD (Cat. # 676490, Calbiochem) (human) (UniProt P35968); test: ELISA, KDR-ECD coat 5 ug/mL, antibody 0.01 ug/mL
[6] = molecular target: whole KDR-ECD (Cat. # 676490, Calbiochem) (human) (UniProt P35968); test: ELISA, KDR-ECD coat 5 ug/mL, antibody 0.1 ug/mL
KDR (human) = KDR (human) (UniProt P35968); test: cell-based or functional assay
[7] = molecular target: human KDR (VEGFR2) on cells (human) (UniProt P35968); test: FACS on HUVEC, control at 2 ug/mL
Sequence of human KDR (VEGFR2) on cells (human) (P35968 20-1356): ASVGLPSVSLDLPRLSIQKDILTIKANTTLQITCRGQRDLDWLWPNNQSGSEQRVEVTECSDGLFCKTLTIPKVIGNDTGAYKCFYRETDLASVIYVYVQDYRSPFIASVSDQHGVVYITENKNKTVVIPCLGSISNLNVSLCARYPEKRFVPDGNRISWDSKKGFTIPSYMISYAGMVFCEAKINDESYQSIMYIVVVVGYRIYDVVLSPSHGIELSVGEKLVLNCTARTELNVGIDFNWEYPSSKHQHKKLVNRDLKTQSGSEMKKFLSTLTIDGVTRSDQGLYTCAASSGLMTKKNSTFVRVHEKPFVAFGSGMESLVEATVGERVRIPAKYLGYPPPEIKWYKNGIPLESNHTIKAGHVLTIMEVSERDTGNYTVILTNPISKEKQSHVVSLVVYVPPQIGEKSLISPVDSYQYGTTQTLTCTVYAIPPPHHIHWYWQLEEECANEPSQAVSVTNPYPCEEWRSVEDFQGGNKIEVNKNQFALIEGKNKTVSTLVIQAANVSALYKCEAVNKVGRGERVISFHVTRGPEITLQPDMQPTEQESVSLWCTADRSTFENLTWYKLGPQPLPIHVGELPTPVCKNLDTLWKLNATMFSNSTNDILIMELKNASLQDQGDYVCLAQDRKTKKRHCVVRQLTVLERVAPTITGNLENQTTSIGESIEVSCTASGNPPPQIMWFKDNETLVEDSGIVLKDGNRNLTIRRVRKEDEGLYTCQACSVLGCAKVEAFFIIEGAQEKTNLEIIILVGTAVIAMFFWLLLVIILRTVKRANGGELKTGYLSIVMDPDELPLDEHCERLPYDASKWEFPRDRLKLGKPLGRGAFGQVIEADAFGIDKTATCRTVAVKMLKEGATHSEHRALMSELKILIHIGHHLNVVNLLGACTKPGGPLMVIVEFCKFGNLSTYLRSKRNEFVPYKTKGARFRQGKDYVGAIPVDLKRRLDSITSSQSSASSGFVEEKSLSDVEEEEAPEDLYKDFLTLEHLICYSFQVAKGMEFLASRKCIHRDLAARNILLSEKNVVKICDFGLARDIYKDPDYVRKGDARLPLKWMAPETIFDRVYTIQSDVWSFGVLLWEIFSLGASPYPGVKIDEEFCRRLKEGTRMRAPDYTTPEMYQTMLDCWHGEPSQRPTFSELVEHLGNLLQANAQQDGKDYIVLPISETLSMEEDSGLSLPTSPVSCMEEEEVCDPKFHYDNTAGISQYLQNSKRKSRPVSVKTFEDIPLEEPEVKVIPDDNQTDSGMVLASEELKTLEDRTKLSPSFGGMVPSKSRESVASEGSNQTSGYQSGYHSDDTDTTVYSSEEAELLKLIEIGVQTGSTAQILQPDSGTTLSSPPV

Sequence of KDR (human) (P35968 20-1356): as above
Sequence of whole KDR-ECD (Cat. # 676490, Calbiochem) (human) (P35968 20-764): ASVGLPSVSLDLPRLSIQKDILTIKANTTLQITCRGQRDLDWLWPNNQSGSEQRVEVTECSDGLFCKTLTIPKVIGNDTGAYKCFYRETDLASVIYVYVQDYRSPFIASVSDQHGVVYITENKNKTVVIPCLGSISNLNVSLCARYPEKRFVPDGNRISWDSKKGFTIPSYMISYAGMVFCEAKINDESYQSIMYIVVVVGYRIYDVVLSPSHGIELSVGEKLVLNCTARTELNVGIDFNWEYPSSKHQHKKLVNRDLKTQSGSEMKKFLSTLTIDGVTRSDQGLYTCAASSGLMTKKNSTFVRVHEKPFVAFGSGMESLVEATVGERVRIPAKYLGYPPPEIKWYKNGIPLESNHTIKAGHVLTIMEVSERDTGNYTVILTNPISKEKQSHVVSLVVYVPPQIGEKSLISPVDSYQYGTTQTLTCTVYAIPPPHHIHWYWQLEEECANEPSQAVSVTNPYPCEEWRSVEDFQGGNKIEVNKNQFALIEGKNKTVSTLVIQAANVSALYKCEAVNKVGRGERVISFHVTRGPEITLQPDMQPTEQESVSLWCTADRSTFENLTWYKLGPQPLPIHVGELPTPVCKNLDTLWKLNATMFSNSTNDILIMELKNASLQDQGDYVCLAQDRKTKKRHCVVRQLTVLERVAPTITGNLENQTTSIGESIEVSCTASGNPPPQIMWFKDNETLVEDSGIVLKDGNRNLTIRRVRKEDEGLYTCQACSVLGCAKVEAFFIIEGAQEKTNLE
Sequence of soluble KDR Ig4-7 domain (human) (P35968 328-764): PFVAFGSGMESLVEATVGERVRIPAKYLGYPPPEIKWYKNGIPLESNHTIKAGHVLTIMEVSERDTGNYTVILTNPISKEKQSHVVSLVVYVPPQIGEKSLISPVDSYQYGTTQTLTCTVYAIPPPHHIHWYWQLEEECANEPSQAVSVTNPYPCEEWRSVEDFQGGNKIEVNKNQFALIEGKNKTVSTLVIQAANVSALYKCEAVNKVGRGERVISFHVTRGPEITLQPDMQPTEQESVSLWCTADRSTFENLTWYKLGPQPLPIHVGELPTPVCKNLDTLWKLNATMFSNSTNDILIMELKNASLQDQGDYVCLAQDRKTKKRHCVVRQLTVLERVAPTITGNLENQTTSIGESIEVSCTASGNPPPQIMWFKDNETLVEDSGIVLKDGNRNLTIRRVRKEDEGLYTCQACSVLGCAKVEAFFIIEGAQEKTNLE

IgG4 (Control) (Sigma-Aldrich, Cat. #14639) (antibody)
ELISA reading [1]: 0.075 | ELISA reading [2]: 0.181 | ELISA reading [3]: 0.078 | ELISA reading [4]: 0.106 | ELISA reading [5]: 0.077 | ELISA reading [6]: 0.078

IgG4 (antibody)
% of Max VEGF KDR pTyr Activity (at 133 nM antibody concentration), Average (KDR (human)): 8% | % of Max VEGF KDR pTyr Activity (at 133 nM antibody concentration), N = 1 (KDR (human)): 6% | % of Max VEGF KDR pTyr Activity (at 133 nM antibody concentration), N = 2 (KDR (human)): 10%

IgG1 (Control) (Sigma-Aldrich, Cat. #15154) (antibody)
ELISA reading [1]: 0.079 | ELISA reading [2]: 0.139 | ELISA reading [3]: 0.097 | ELISA reading [4]: 0.121 | ELISA reading [5]: 0.082 | ELISA reading [6]: 0.087

IgG2 (antibody)
% of Max VEGF KDR pTyr Activity (at 133 nM antibody concentration), Average (KDR (human)): 9% | % of Max VEGF KDR pTyr Activity (at 133 nM antibody concentration), N = 1 (KDR (human)): 6% | % of Max VEGF KDR pTyr Activity (at 133 nM antibody concentration), N = 2 (KDR (human)): 12%

goat isotype control (antibody)
FACS Geometric Mean [7]: 3.28
